B1: KLHDC10 (parent)
chain: PSLLELAWEKLLAAFPNLANLSRT

Variants of: B1
Assay: protein stability index of a GFP-peptide fusion (GPS, HEK-293T) (PSI 1-6); higher = more stable
Settings: c terminus: a fixed tail appended
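Further: lentivirally expressed fusions sorted by FACS into six bins by GFP to DsRed ratio, PSI derived from sequencing read proportions per bin multiplied by bin number.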

Variant | protein stability index
PSLLELAWEKLMAAFPNLANLSRT | 1.85
PSLLELAWEKLPAAFPNLANLSRT | 2.17
PSLLELAWEKLNAAFPNLANLSRT | 2.32
PSLLELAWEKLWAAFPNLANLSRT | 1.71
PSLLELAWEKLVAAFPNLANLSRT | 2.44
PSLLELAWEKLQAAFPNLANLSRT | 2.23
PSLLELAWEKLHAAFPNLANLSRT | 2.33
PSLLELAWEKLYAAFPNLANLSRT | 1.76
PSLLELAWEKLDAAFPNLANLSRT | 3.04
PSLLELAWEKLFAAFPNLANLSRT | 2.3
PSLLELAWEKLTAAFPNLANLSRT | 2.37
PSLLELAWEKLIAAFPNLANLSRT | 2.12
PSLLELAWEKLKAAFPNLANLSRT | 3.22
PSLLELAWEKLRAAFPNLANLSRT | 1.88
PSLLELAWEKLCAAFPNLANLSRT | 1.83
PSLLELAWEKLAAAFPNLANLSRT | 2.52
PSLLELAWEKLSAAFPNLANLSRT | 1.9
PSLLELAWEKLGAAFPNLANLSRT | 2.66
PSLLELAWEKLEAAFPNLANLSRT | 2.66
PSLLELAWEALLAAFPNLANLSRT | 1.84
PSLLELAWEVLLAAFPNLANLSRT | 2.07
PSLLELAWEWLLAAFPNLANLSRT | 2.53
PSLLELAWESLLAAFPNLANLSRT | 1.72
PSLLELAWEDLLAAFPNLANLSRT | 1.84

Variant | protein stability index
PSLLELAWECLLAAFPNLANLSRT | 1.63
PSLLELAWELLLAAFPNLANLSRT | 2.42
PSLLELAWEPLLAAFPNLANLSRT | 1.64
PSLLELAWEQLLAAFPNLANLSRT | 1.95
PSLLELAWEFLLAAFPNLANLSRT | 2.25
PSLLELAWERLLAAFPNLANLSRT | 1.9
PSLLELAWEHLLAAFPNLANLSRT | 2.09
PSLLELAWEMLLAAFPNLANLSRT | 2
PSLLELAWEYLLAAFPNLANLSRT | 1.75
PSLLELAWEELLAAFPNLANLSRT | 1.57
PSLLELAWENLLAAFPNLANLSRT | 1.48
PSLLELAWEGLLAAFPNLANLSRT | 1.93
PSLLELAWETLLAAFPNLANLSRT | 1.69
PSLLELAWEILLAAFPNLANLSRT | 1.7
PSLLELAWEKLLCAFPNLANLSRT | 2.01
PSLLELAWEKLLTAFPNLANLSRT | 2.2
PSLLELAWEKLLDAFPNLANLSRT | 2.12
PSLLELAWEKLLFAFPNLANLSRT | 1.46
PSLLELAWEKLLIAFPNLANLSRT | 2.46
PSLLELAWEKLLMAFPNLANLSRT | 2.51
PSLLELAWEKLLEAFPNLANLSRT | 1.99
PSLLELAWEKLLLAFPNLANLSRT | 1.74
PSLLELAWEKLLRAFPNLANLSRT | 1.8
PSLLELAWEKLLYAFPNLANLSRT | 1.85

Variant | protein stability index
PSLLELAWEKLLQAFPNLANLSRT | 2.25
PSLLELAWEKLLPAFPNLANLSRT | 1.86
PSLLELAWEKLLKAFPNLANLSRT | 1.95
PSLLELAWEKLLWAFPNLANLSRT | 1.64
PSLLELAWEKLLGAFPNLANLSRT | 2.06
PSLLELAWEKLLNAFPNLANLSRT | 2.04
PSLLELAWEKLLSAFPNLANLSRT | 2.28
PSLLELAWEKLLHAFPNLANLSRT | 2.83
PSLLELAWEKLLVAFPNLANLSRT | 1.79
PSLLELAWEKLLAAFFNLANLSRT | 1.51
PSLLELAWEKLLAAFCNLANLSRT | 2.23
PSLLELAWEKLLAAFYNLANLSRT | 2.06
PSLLELAWEKLLAAFQNLANLSRT | 2.12
PSLLELAWEKLLAAFVNLANLSRT | 3.1
PSLLELAWEKLLAAFINLANLSRT | 1.63
PSLLELAWEKLLAAFHNLANLSRT | 1.55
PSLLELAWEKLLAAFNNLANLSRT | 2.03
PSLLELAWEKLLAAFGNLANLSRT | 1.25
PSLLELAWEKLLAAFDNLANLSRT | 2.2
PSLLELAWEKLLAAFWNLANLSRT | 2.35
PSLLELAWEKLLAAFMNLANLSRT | 2.62
PSLLELAWEKLLAAFANLANLSRT | 1.84
PSLLELAWEKLLAAFSNLANLSRT | 1.4
PSLLELAWEKLLAAFTNLANLSRT | 2.01

Variant | protein stability index
PSLLELAWEKLLAAFENLANLSRT | 1.45
PSLLELAWEKLLAAFLNLANLSRT | 1.78
PSLLELAWQKLLAAFPNLANLSRT | 2.34
PSLLELAWLKLLAAFPNLANLSRT | 2.29
PSLLELAWFKLLAAFPNLANLSRT | 1.44
PSLLELAWNKLLAAFPNLANLSRT | 2.62
PSLLELAWSKLLAAFPNLANLSRT | 2.35
PSLLELAWKKLLAAFPNLANLSRT | 1.97
PSLLELAWMKLLAAFPNLANLSRT | 1.61
PSLLELAWYKLLAAFPNLANLSRT | 1.59
PSLLELAWPKLLAAFPNLANLSRT | 2
PSLLELAWHKLLAAFPNLANLSRT | 1.93
PSLLELAWVKLLAAFPNLANLSRT | 1.72
PSLLELAWRKLLAAFPNLANLSRT | 2.37
PSLLELAWCKLLAAFPNLANLSRT | 1.5
PSLLELAWIKLLAAFPNLANLSRT | 2.07
PSLLELAWGKLLAAFPNLANLSRT | 2
PSLLELAWWKLLAAFPNLANLSRT | 1.14
PSLLELAWTKLLAAFPNLANLSRT | 2.39
PSLLELAWDKLLAAFPNLANLSRT | 2.22
PSLLELAWEKLLAANPNLANLSRT | 2.31
PSLLELAWEKLLAAVPNLANLSRT | 2.38
PSLLELAWEKLLAATPNLANLSRT | 2.1
PSLLELAWEKLLAAKPNLANLSRT | 1.78

Variant | protein stability index
PSLLELAWEKLLAALPNLANLSRT | 2.16
PSLLELAWEKLLAAHPNLANLSRT | 2.06
PSLLELAWEKLLAAGPNLANLSRT | 2.08
PSLLELAWEKLLAARPNLANLSRT | 2.11
PSLLELAWEKLLAAPPNLANLSRT | 2.49
PSLLELAWEKLLAAYPNLANLSRT | 1.7
PSLLELAWEKLLAAMPNLANLSRT | 2.06
PSLLELAWEKLLAASPNLANLSRT | 1.92
PSLLELAWEKLLAAQPNLANLSRT | 2.52
PSLLELAWEKLLAACPNLANLSRT | 1.78
PSLLELAWEKLLAAWPNLANLSRT | 2.4
PSLLELAWEKLLAAIPNLANLSRT | 1.39
PSLLELAWEKLLAAAPNLANLSRT | 2.23
PSLLELAWEKLLAADPNLANLSRT | 2.3
PSLLELAWEKLLAAEPNLANLSRT | 2.36
PSLLELAWEKLLAMFPNLANLSRT | 2.19
PSLLELAWEKLLACFPNLANLSRT | 2.58
PSLLELAWEKLLAIFPNLANLSRT | 2.83
PSLLELAWEKLLAGFPNLANLSRT | 1.81
PSLLELAWEKLLATFPNLANLSRT | 2.2
PSLLELAWEKLLAQFPNLANLSRT | 2.05
PSLLELAWEKLLAYFPNLANLSRT | 3
PSLLELAWEKLLAKFPNLANLSRT | 2.1
PSLLELAWEKLLAHFPNLANLSRT | 2.15

Variant | protein stability index
PSLLELAWEKLLAVFPNLANLSRT | 2.4
PSLLELAWEKLLARFPNLANLSRT | 1.87
PSLLELAWEKLLALFPNLANLSRT | 2.75
PSLLELAWEKLLAWFPNLANLSRT | 3.3
PSLLELAWEKLLADFPNLANLSRT | 2.19
PSLLELAWEKLLANFPNLANLSRT | 2.2
PSLLELAWEKLLASFPNLANLSRT | 2.86
PSLLELAWEKLLAPFPNLANLSRT | 2.07
PSLLELAWEKLLAEFPNLANLSRT | 2.11
PSLLELAWEKLLAFFPNLANLSRT | 2.82
PSLLELAWEKLLAAFPKLANLSRT | 1.43
PSLLELAWEKLLAAFPFLANLSRT | 2.25
PSLLELAWEKLLAAFPALANLSRT | 2.5
PSLLELAWEKLLAAFPVLANLSRT | 2.18
PSLLELAWEKLLAAFPELANLSRT | 1.62
PSLLELAWEKLLAAFPSLANLSRT | 2.29
PSLLELAWEKLLAAFPLLANLSRT | 2.15
PSLLELAWEKLLAAFPILANLSRT | 2.01
PSLLELAWEKLLAAFPMLANLSRT | 2.56
PSLLELAWEKLLAAFPGLANLSRT | 3.66
PSLLELAWEKLLAAFPYLANLSRT | 2.44
PSLLELAWEKLLAAFPPLANLSRT | 1.97
PSLLELAWEKLLAAFPRLANLSRT | 2.09
PSLLELAWEKLLAAFPQLANLSRT | 1.94

Variant | protein stability index
PSLLELAWEKLLAAFPHLANLSRT | 2.13
PSLLELAWEKLLAAFPCLANLSRT | 1.81
PSLLELAWEKLLAAFPTLANLSRT | 1.8
PSLLELAWEKLLAAFPWLANLSRT | 2.94
PSLLELAWEKLLAAFPDLANLSRT | 2.03
PSLLELAWEKSLAAFPNLANLSRT | 2.2
PSLLELAWEKKLAAFPNLANLSRT | 1.62
PSLLELAWEKILAAFPNLANLSRT | 2.23
PSLLELAWEKQLAAFPNLANLSRT | 2.19
PSLLELAWEKHLAAFPNLANLSRT | 1.92
PSLLELAWEKELAAFPNLANLSRT | 2.55
PSLLELAWEKVLAAFPNLANLSRT | 2.5
PSLLELAWEKRLAAFPNLANLSRT | 2.07
PSLLELAWEKYLAAFPNLANLSRT | 2.19
PSLLELAWEKMLAAFPNLANLSRT | 1.6
PSLLELAWEKCLAAFPNLANLSRT | 1.88
PSLLELAWEKDLAAFPNLANLSRT | 2.14
PSLLELAWEKGLAAFPNLANLSRT | 1.69
PSLLELAWEKTLAAFPNLANLSRT | 1.92
PSLLELAWEKWLAAFPNLANLSRT | 2.06
PSLLELAWEKNLAAFPNLANLSRT | 2.26
PSLLELAWEKALAAFPNLANLSRT | 2.36
PSLLELAWEKFLAAFPNLANLSRT | 2.29
PSLLELAWEKPLAAFPNLANLSRT | 2.39

Variant | protein stability index
PSLLELAWEKLLAAFPNCANLSRT | 2.23
PSLLELAWEKLLAAFPNYANLSRT | 1.86
PSLLELAWEKLLAAFPNWANLSRT | 1.82
PSLLELAWEKLLAAFPNHANLSRT | 1.84
PSLLELAWEKLLAAFPNIANLSRT | 2.08
PSLLELAWEKLLAAFPNTANLSRT | 1.96
PSLLELAWEKLLAAFPNNANLSRT | 2.97
PSLLELAWEKLLAAFPNVANLSRT | 1.81
PSLLELAWEKLLAAFPNEANLSRT | 2.35
PSLLELAWEKLLAAFPNSANLSRT | 2.01
PSLLELAWEKLLAAFPNMANLSRT | 1.84
PSLLELAWEKLLAAFPNDANLSRT | 2.1
PSLLELAWEKLLAAFPNAANLSRT | 2.15
PSLLELAWEKLLAAFPNRANLSRT | 1.73
PSLLELAWEKLLAAFPNQANLSRT | 2.35
PSLLELAWEKLLAAFPNFANLSRT | 2.52
PSLLELAWEKLLAAFPNKANLSRT | 1.78
PSLLELAWEKLLAAFPNPANLSRT | 2.15
PSLLELAWEKLLAAFPNGANLSRT | 2.56
PSLLELAWEKLLAAFPNLCNLSRT | 2.04

Reference: the supplement of paper PMC10567573
